Patent US20230303660A1 (published 2023)
“And” between values parts separate entries of the source, which are not always exact repeats. Equal values may be shown once.

B1: s4-1BBL-TriXVIII^LL (ligand)
chain: GSGSNWSHPQFEKGGSGGHHHHHHGGSGGTRSGAGGSGGSSGSDGASGSGVRLWATRQAMLGQVHEVPEGWLIFVAEQEELYVRVQNGFRKVQLEARTPLPRGTDNEGSLDLRQGMFAQLVAQNVLLIDGPLSWYSDPGLAGVSLTGGLSYKEDTKELVVAKAGVYYVFFQLELRRVVAGEGSGSVSLALHLQPLRSAAGAAALALTVDLPPASSEARNSAFGFQGRLLHLSAGQRLGVHLHTEARARHAWQLTQGATVLGLFRVTPEIPAGLPSPRSE
B2: s4-1BBL (ligand)
chain: GSGSNWSHPQFEKGGSGGHHHHHHGGSGGGSLDLRQGMFAQLVAQNVLLIDGPLSWYSDPGLAGVSLTGGLSYKEDTKELVVAKAGVYYVFFQLELRRVVAGEGSGSVSLALHLQPLRSAAGAAALALTVDLPPASSEARNSAFGFQGRLLHLSAGQRLGVHLHTEARARHAWQLTQGATVLGLFRVTPEIPAGLPSPRSE
notes: HEK293T supernatant; also called soluble 4-1BBL
B3: s4-1BBL-TNC (ligand)
chain: GSGSNWSHPQFEKGGSGGHHHHHHGGSGGTRACGCAAAPDIKDLLSRLEELEGLVSSLREQGSLDLRQGMFAQLVAQNVLLIDGPLSWYSDPGLAGVSLTGGLSYKEDTKELVVAKAGVYYVFFQLELRRVVAGEGSGSVSLALHLQPLRSAAGAAALALTVDLPPASSEARNSAFGFQGRLLHLSAGQRLGVHLHTEARARHAWQLTQGATVLGLFRVTPEIPAGLPSPRSE
notes: HEK293T supernatant; The entry may include the CD5 leader; also called comparison 3
B4: murine (m)s4-1BBL-TriXVIII (ligand)
chain: GVRLWATRQAMLGQVHEVPEGWLIFVAEQEELYVRVQNGFRKVQLEARTPLPRGTDNEGSRTEPRPALTITTSPNLGTRENNADQVTPVSHIGCPNTTQQGSPVFAKLLAKNQASLCNTTLNWHSQDGAGSSYLSQGLRYEEDKKELVVDSPGLYYVFLELKLSPTFTNTGHKVQGWVSLVLQAKPQVDDFDNLALTVELFPCSMENKLVDRSWSQLLLLKAGHRLSVGLRAYLHGAQDAYRDWELSYPNTTSFGLFLVKPDNPWE
B5: s4-1BBL-TriXVIII (ligand)
chain: GSGSNWSHPQFEKGGSGGHHHHHHGGSGGGVRLWATRQAMLGQVHEVPEGWLIFVAEQEELYVRVQNGFRKVQLEARTPLPRGTDNEGSLDLRQGMFAQLVAQNVLLIDGPLSWYSDPGLAGVSLTGGLSYKEDTKELVVAKAGVYYVFFQLELRRVVAGEGSGSVSLALHLQPLRSAAGAAALALTVDLPPASSEARNSAFGFQGRLLHLSAGQRLGVHLHTEARARHAWQLTQGATVLGLFRVTPEIPAGLPSPRSE
notes: HEK293T supernatant; The entry may include the CD5 leader; also called 54-1BBL-TriXVIII; human s4-1BBL-TriXVIII
B6: Triple-s4-1BBL (ligand)
chain: GSGSNWSHPQFEKGGSGGHHHHHHGGSGGGSLDLRQGMFAQLVAQNVLLIDGPLSWYSDPGLAGVSLTGGLSYKEDTKELVVAKAGVYYVFFQLELRRVVAGEGSGSVSLALHLQPLRSAAGAAALALTVDLPPASSEARNSAFGFQGRLLHLSAGQRLGVHLHTEARARHAWQLTQGATVLGLFRVTPEIPAGLPSPRSEGGGGSGGGGSGGGGSLDLRQGMFAQLVAQNVLLIDGPLSWYSDPGLAGVSLTGGLSYKEDTKELVVAKAGVYYVFFQLELRRVVAGEGSGSVSLALHLQPLRSAAGAAALALTVDLPPASSEARNSAFGFQGRLLHLSAGQRLGVHLHTEARARHAWQLTQGATVLGLFRVTPEIPAGLPSPRSEGGGGSGGGGSGGGGSLDLRQGMFAQLVAQNVLLIDGPLSWYSDPGLAGVSLTGGLSYKEDTKELVVAKAGVYYVFFQLELRRVVAGEGSGSVSLALHLQPLRSAAGAAALALTVDLPPASSEARNSAFGFQGRLLHLSAGQRLGVHLHTEARARHAWQLTQGATVLGLFRVTPEIPAGLPSPRSE
notes: HEK293T supernatant; Single chain carrying three ectodomains; The entry may include the leader
B7: s4-1BBLsh-TriXVIII (ligand)
chain: GSGSNWSHPQFEKGGSGGHHHHHHGGSGGGVRLWATRQAMLGQVHEVPEGWLIFVAEQEELYVRVQNGFRKVQLEARTPLPRGTDNEGSGMFAQLVAQNVLLIDGPLSWYSDPGLAGVSLTGGLSYKEDTKELVVAKAGVYYVFFQLELRRVVAGEGSGSVSLALHLQPLRSAAGAAALALTVDLPPASSEARNSAFGFQGRLLHLSAGQRLGVHLHTEARARHAWQLTQGATVLGLFRVTP
notes: HEK293T supernatant, used without purification; The entry may include the CD5 leader; also called 54-1BBLsh-TriXVIII; s4-1BBL-short (sh) minimal polypeptide

Legend:
human 4-1BB [1] = target: T1, human 4-1BB (human, UniProt Q07011 24-255); assay: cell-based or functional assay
human 4-1BB [2] = target: T1, human 4-1BB; assay: flow cytometry; dilution series of HEK293T supernatant on Jurkat TPR cells expressing human 4-1BB
Text: For testing the resulting supernatants, a Triple parameter reporter cell line (TPR) based on the human Jurkat JE6-1 T cell line was used (Jutz et al., 2016). This cell line harbors fluorescent reporter polypeptides to concomitantly assess the activity of three transcription factors, which play major roles during T cell activation: NF-κB::eCFP; NFAT::eGFP and AP-1::mCherry. The TPR reporter cells were transduced to stably express human 4-1BB. For the binding assays, 1×10⁵ 4-1 BB expressing cells in a volume of 10 μl were incubated with 50 μl of the supernatants containing the products according to Table 1. […] After an incubation time of 30 min at 4° C., the samples are washed in FACS-Buffer (1×PBS, 0.5% FCS, 0.005% NaN₃) and stained with a biotinylated Strep-tag II mAb (GenScript, NJ) via adding 5 μl of a 1:150 dilution to each sample and incubation for 20 min on 4° C. Afterwards, samples were washed again and incubated for another 20 min on 4° C. upon adding 5 μl of a 1:200 dilution of Streptavidin-PE (BD Pharmingen, San Diego, CA) to each sample. At last, samples were washed again and subsequently measured via flow cytometry, which was performed on a FACSCalibur flow cytometer (Becton Dickinson Immunocytometry System, San Jose, CA), using the CellQuest software. Data was analyzed with FlowJo (version 10.0.7, Tree Star, Ashland, OR) and Graphpad Prism (version 6, GraphPad Software, Inc., La Jolla, CA).

murine 4-1BB = murine 4-1BB (murine, UniProt P20334 24-256); assay: cell-based or functional assay
Chain of murine 4-1BB (P20334 24-256): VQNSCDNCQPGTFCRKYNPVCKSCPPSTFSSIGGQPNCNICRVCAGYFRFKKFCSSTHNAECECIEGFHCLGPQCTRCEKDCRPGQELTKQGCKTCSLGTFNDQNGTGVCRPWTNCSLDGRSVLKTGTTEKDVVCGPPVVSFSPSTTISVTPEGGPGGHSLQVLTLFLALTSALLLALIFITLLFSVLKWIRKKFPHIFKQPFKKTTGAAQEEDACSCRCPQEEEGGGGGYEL

T1 sequence (Q07011 24-255): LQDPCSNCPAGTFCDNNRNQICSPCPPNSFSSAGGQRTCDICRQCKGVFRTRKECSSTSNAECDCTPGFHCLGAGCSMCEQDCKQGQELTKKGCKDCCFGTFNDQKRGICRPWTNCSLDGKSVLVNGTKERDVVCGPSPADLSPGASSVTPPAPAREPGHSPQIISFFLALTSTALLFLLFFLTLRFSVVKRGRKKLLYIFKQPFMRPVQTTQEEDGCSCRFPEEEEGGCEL

| Binder | NF-κB activation measured through eCFP expression (fold induction) (human 4-1BB [1]) | supernatant dilution at which binding is still detectable (human 4-1BB [2]) | NF-κB activation measured through eCFP expression (fold induction) (murine 4-1BB) |
| --- | --- | --- | --- |
| B1 | 64 final supernatant dilution (1:x) and 8 supernatant dilution (1:x) |  |  |
| B2 | 8 final supernatant dilution (1:x) | 1600 supernatant dilution (1:x) |  |
| B3 | ~50 % of effect lost at a dilution of 1:8 | 128 supernatant dilution (1:x) |  |
| B4 |  |  | 15600 final supernatant dilution (1:x) and 500 supernatant dilution (1/x) |
| B5 |  | 4096 supernatant dilution (1:x) |  |
| B6 |  | 4096 supernatant dilution (1:x) |  |
| B7 |  | 2080 supernatant dilution (1:x) |  |
